Laboratory results: article PMC5794333, “Identification of osmoadaptive strategies in the halophile, heterotrophic ciliate Schmidingerothrix salinarum” (PLoS Biology, 2018)

What was measured:
purified protein [1] = substrate: O=C(O)CC(=O)C(=O)O; assay: purified protein; conditions: 0.05 M NaCl, 0.3 mM NADH, 32.5 mM Tris/HCl pH 7.5
purified protein [2] = substrate: O=C(O)CC(C(=O)O)C(O)C(=O)O; assay: purified protein; type: biochemical, Escherichia coli; conditions: 0.05 M NaCl, 0.8 mM NADP+, 1 mM MgCl2, 32.5 mM Tris/HCl pH 7.5, concentration as DL-isocitrate

B1: MDHE.coli (Escherichia coli K-12) (protein)
chain: MKVAVLGAAGGIGQALALLLKTQLPSGSELSLYDIAPVTPGVAVDLSHIPTAVKIKGFSGEDATPALEGADVVLISAGVARKPGMDRSDLFNVNAGIVKNLVQQVAKTCPKACIGIITNPVNTTVAIAAEVLKKAGVYDKNKLFGVTTLDIIRSNTFVAELKGKQPGEVEVPVIGGHSGVTILPLLSQVPGVSFTEQEVADLTKRIQNAGTEVVEAKAGGGSATLSMGQAAARFGLSLVRALQGEQGVVECAYVEGDGQYARFFSQPLLLGKNGVEERKSIGTLSAFEQNALEGMLDTLKKDIALGEEFVNK
Question: Which Km (purified protein [1]) does the source give for B1 here?
Answer: Its Km is 0.022 mM.

Question: And the Vmax (purified protein [1])?
Answer: Its Vmax is 1490 µmol/min/mg.

B2: ICDHE.coli (Escherichia coli K-12) (protein)
chain: MESKVVVPAQGKKITLQNGKLNVPENPIIPYIEGDGIGVDVTPAMLKVVDAAVEKAYKGERKISWMEIYTGEKSTQVYGQDVWLPAETLDLIREYRVAIKGPLTTPVGGGIRSLNVALRQELDLYICLRPVRYYQGTPSPVKHPELTDMVIFRENSEDIYAGIEWKADSADAEKVIKFLREEMGVKKIRFPEHCGIGIKPCSEEGTKRLVRAAIEYAIANDRDSVTLVHKGNIMKFTEGAFKDWGYQLAREEFGGELIDGGPWLKVKNPNTGKEIVIKDVIADAFLQQILLRPAEYDVIACMNLNGDYISDALAAQVGGIGIAPGANIGDECALFEATHGTAPKYAGQDKVNPGSIILSAEMMLRHMGWTEAADLIVKGMEGAINAKTVTYDFERLMDGAKLLKCSEFGDAIIENM
notes: N-terminal His-tag, cloned from genomic DNA into pETDuet-1, E. coli BL21; Ni-NTA
Question: What does the source list for B2?
Answer: Km (purified protein [2]): 0.021 mM; Vmax (purified protein [2]): 46 µmol/min/mg
